This note sets out measurements from publication PMC3351185 (Nucleic Acids Research, 2011).

The test addresses T1, ϕ29 DNA polymerase (wild-type) (bacteriophage ϕ29, UniProt P03680 1-575).
T1 sequence: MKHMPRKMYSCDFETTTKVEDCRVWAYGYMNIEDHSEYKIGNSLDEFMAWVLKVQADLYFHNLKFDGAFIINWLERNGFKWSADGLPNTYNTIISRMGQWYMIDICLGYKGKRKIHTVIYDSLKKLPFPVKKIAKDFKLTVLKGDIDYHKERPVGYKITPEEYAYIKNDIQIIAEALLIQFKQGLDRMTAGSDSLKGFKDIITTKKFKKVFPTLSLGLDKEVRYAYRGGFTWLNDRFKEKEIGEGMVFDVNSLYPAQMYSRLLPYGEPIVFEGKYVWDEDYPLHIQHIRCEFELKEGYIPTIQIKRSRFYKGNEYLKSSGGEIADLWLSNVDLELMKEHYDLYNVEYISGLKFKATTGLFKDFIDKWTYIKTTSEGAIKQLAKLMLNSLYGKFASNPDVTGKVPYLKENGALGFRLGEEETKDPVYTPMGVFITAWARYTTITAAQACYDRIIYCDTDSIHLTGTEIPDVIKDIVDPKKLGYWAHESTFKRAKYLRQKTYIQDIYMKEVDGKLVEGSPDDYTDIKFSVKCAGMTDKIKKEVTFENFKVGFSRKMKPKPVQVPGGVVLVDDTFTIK
As to the kind of experiment: cell-based or functional assay.

B1: ϕ29 terminal protein mutant R158A (natural protein, bacteriophage ϕ29, UniProt P03681 1-266, looked up)
chain: MARSPRIRIKDNDKAEYARLVKNTKAKIARTKKKYGVDLTAEIDIPDLDSFETRAQFNKWKEQASSFTNRANMRYQFEKNAYGVVASKAKIAEIERNTKEVQRLVDEKIKAMKDKEYYAGGKPQGTIEQRIAMTSPAHVTGINRPHDFDFSKVRSYSALRTLEESMEMRTDPQYYEKKMIQLQLNFIKSVEGSFNSFDAADELIEELKKIPPDDFYELFLRISEISFEEFDSEGNTVENVEGNVYKILSYLEQYRRGDFDLSLKGF
As to B1, the “TP-DNA amplification (%), activity with respect to the wild-type TP” value was 1 % of wild-type TP and the “TP-DNA replication, activity with respect to the wild-type TP” value is 17 % of wild-type TP.
